Reference: paper doi:10.1101/2021.01.13.426575 (bioRxiv, 2021)
Numbering of substitutions follows the chain as printed. Numbers in names are those of the source. Where two headings read alike, the source gives them in different places.

B1: CARD8-CT (N-terminally degraded CARD8, UPA-CARD) in the purified CARD8-DPP9 complex (domain or fragment, human, UniProt Q9Y2G2-5 297-537, looked up)
chain: SLMGILLRIASGTRLSIPITSNTLIYYHPHPEDIKFHLYLVPSDALLTKAIDDEEDRFHGVRLQTSPPMEPLNFGSSYIVSNSANLKVMPKELKLSYRSPGEIQHFSKFYAGQMKEPIQLEITEKRHGTLVWDTEVKPVDLQLVAASAPPPFSGAAFVKENHRQLQARMGDLKGVLDDLQDNEVLTENEKELVEQEKTRQSKNEALLSMVEKKGDLALDVLFRSISERDPYLVSYLRQQNL
B2: DPP9, short isoform (DPP9S), co-expressed with CARD8 for cryo-EM (enzyme, human)
chain: MATTGTPTADRGDAAATDDPAARFQVQKHSWDGLRSIIHGSRKYSGLIVNKAPHDFQFVQKTDESGPHSHRLYYLGMPYGSRENSLLYSEIPKKVRKEALLLLSWKQMLDHFQATPHHGVYSREEELLRERKRLGVFGITSYDFHSESGLFLFQASNSLFHCRDGGKNGFMVSPMKPLEIKTQCSGPRMDPKICPADPAFFSFINNSDLWVANIETGEERRLTFCHQGLSNVLDDPKSAGVATFVIQEEFDRFTGYWWCPTASWEGSEGLKTLRILYEEVDESEVEVIHVPSPALEERKTDSYRYPRTGSKNPKIALKLAEFQTDSQGKIVSTQEKELVQPFSSLFPKVEYIARAGWTRDGKYAWAMFLDRPQQWLQLVLLPPALFIPSTENEEQRLASARAVPRNVQPYVVYEEVTNVWINVHDIFYPFPQSEGEDELCFLRANECKTGFCHLYKVTAVLKSQGYDWSEPFSPGEDEFKCPIKEEIALTSGEWEVLARHGSKIWVNEETKLVYFQGTKDTPLEHHLYVVSYEAAGEIVRLTTPGFSHSCSMSQNFDMFVSHYSSVSTPPCVHVYKLSGPDDDPLHKQPRFWASMMEAASCPPDYVPPEIFHFHTRSDVRLYGMIYKPHALQPGKKHPTVLFVYGGPQVQLVNNSFKGIKYLRLNTLASLGYAVVVIDGRGSCQRGLRFEGALKNQMGQVEIEDQVEGLQFVAEKYGFIDLSRVAIHGWSYGGFLSLMGLIHKPQVFKVAIAGAPVTVWMAYDTGYTERYMDVPENNQHGYEAGSVALHVEKLPNEPNRLLILHGFLDENVHFFHTNFLVSQLIRAGKPYQLQIYPNERHSIRCPESGEHYEVTLLHFLQEYL
B3: Full-length CARD8 (T60 isoform), wild type, co-expressed with DPP9S for cryo-EM (natural protein, human, UniProt Q9Y2G2-5 1-537, looked up)
chain: MEKKECPEKSSSSEEELPRRDSGSSRNIDASKLIRLQGSRKLLVDNSIRELQYTKTGIFFQAEACVTNDTVYRELPCVSETLCDISHFFQEDDETEAEPLLFRAVPECQLSGGDIPSVSEEQESSEGQDSGDICSEENQIVSSYASKVCFEIEEDYKNRQFLGPEGNVDVELIDKSTNRYSVWFPTAGWYLWSATGLGFLVRDEVTVTIAFGSWSQHLALDLQHHEQWLVGGPLFDVTAEPEEAVAEIHLPHFISLQAGEVDVSWFLVAHFKNEGMVLEHPARVEPFYAVLESPSFSLMGILLRIASGTRLSIPITSNTLIYYHPHPEDIKFHLYLVPSDALLTKAIDDEEDRFHGVRLQTSPPMEPLNFGSSYIVSNSANLKVMPKELKLSYRSPGEIQHFSKFYAGQMKEPIQLEITEKRHGTLVWDTEVKPVDLQLVAASAPPPFSGAAFVKENHRQLQARMGDLKGVLDDLQDNEVLTENEKELVEQEKTRQSKNEALLSMVEKKGDLALDVLFRSISERDPYLVSYLRQQNL
B4: Full-length CARD8 S297A (autoproteolysis-deficient), co-expressed with DPP9S for cryo-EM (natural protein, human, UniProt Q9Y2G2-5 1-537, looked up)
chain: B3 chain with S297A

Key:
Test in all cases: cryo-EM structure
[1] = molecular target: B3
[2] = molecular target: B2
[3] = molecular target: B2; remark: listed apart in the source

Binder: B1
binding result [1]: binds

Binder: B2
stoichiometry N [1]: 1

Binder: B3
binding result [2]: binds

Binder: B4
binding result [3]: binds
